Data reported in patent US20240270846A1 (published 2024).

What follows are binders tested against T1, CD3 epsilon homodimer protein (UniProt P07766 23-126) (assay: SPR (Biacore T200), CD3e homodimer on CM4 chip, antibody as analyte; KD ratio vs unaltered GLS3000;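 also: CD3 epsilon homodimer amine-coupled to the sensor surface, antibodies injected as analyte at 25 °C with HBS-EP+ running buffer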).
T1 construct: also called CD3 (CD3 epsilon)
T1 sequence (P07766 23-126): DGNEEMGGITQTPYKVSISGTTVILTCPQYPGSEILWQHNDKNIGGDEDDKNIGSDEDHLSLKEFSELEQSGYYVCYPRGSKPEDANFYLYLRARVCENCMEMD

Binder | KD ratio to GLS3000
CE115HA000/GLS3000 F55S one-arm antibody (antibody, human IgG1, kappa, L234A L235A, N297A, name in Kabat numbering, one-arm IgG1) heavy: QVQLVESGGGVVQPGRSLRLSCAASGFTFSNAWMHWVRQAPGKGLEWVAQIKAKSNNYATYYAESVKGRFTISRDDSKNSLYLQMNSLKTEDTAVYYCRYVHYGAYYGVDAWGQGTTVTVSSASTKGPSVFPLAPSSKSTSGGTAALGCLVKDYFPEPVTVSWNSGALTSGVHTFPAVLQSSGLYSLSSVVTVPSSSLGTQTYICNVNHKPSNTKVDKKVEPKSCDKTHTCPPCPAPEAAGGPSVFLFPPKPKDTLMISRTPEVTCVVVDVSHEDPEVKFNWYVDGVEVHNAKTKPREEQYASTYRVVSVLTVLHQDWLNGKEYKCKVSNKALPAPIEKTISKAKGQPREPQVYTLPPSRCELTKNQVSLSCAVKGFYPSDIAVEWESNGQPENNYKTTPPVLDSDGSFFLVSKLTVDKSRWQQGNVFSCSVMHEALHNHYTQKSLSLSPDYKDDDDK EPKSSDKTHTCPPCPAPELLGGPSVFLFPPKPKDTLMISRTPEVTCVVVDVSHEDPEVKFNWYVDGVEVHNAKTKPREEQYNSTYRVVSVLTVLHQDWLNGKEYKCKVSNKALPAPIEKTISKAKGQPREPQVCTLPPSRDELTKNQVSLWCLVKGFYPSDIAVEWESNGQPENNYKTTPPVLDSDGSFFLYSKLTVDKSRWQQGNVFSCSVMHEALHNRYTQKSLSLSP light: DIVMTQSPLSLPVTPGEPASISCRSSQSLVHSNRNTYLHWYQQKPGQAPRLLIYKVSNRSSGVPDRFSGSGSGTDFTLKISRVEAEDVGVYYCGQGTQVPYTFGQGTKLEIKRTVAAPSVFIFPPSDEQLKSGTASVVCLLNNFYPREAKVQWKVDNALQSGNSQESVTEQDSKDSTYSLSSTLTLSKADYEKHKVYACEVTHQGLSSPVTKSFNRGEC | 1.15 ratio
CE115HA000/GLS3000 F55T one-arm antibody (antibody, human IgG1, kappa, L234A L235A, N297A, name in Kabat numbering, one-arm IgG1) heavy: QVQLVESGGGVVQPGRSLRLSCAASGFTFSNAWMHWVRQAPGKGLEWVAQIKAKSNNYATYYAESVKGRFTISRDDSKNSLYLQMNSLKTEDTAVYYCRYVHYGAYYGVDAWGQGTTVTVSSASTKGPSVFPLAPSSKSTSGGTAALGCLVKDYFPEPVTVSWNSGALTSGVHTFPAVLQSSGLYSLSSVVTVPSSSLGTQTYICNVNHKPSNTKVDKKVEPKSCDKTHTCPPCPAPEAAGGPSVFLFPPKPKDTLMISRTPEVTCVVVDVSHEDPEVKFNWYVDGVEVHNAKTKPREEQYASTYRVVSVLTVLHQDWLNGKEYKCKVSNKALPAPIEKTISKAKGQPREPQVYTLPPSRCELTKNQVSLSCAVKGFYPSDIAVEWESNGQPENNYKTTPPVLDSDGSFFLVSKLTVDKSRWQQGNVFSCSVMHEALHNHYTQKSLSLSPDYKDDDDK EPKSSDKTHTCPPCPAPELLGGPSVFLFPPKPKDTLMISRTPEVTCVVVDVSHEDPEVKFNWYVDGVEVHNAKTKPREEQYNSTYRVVSVLTVLHQDWLNGKEYKCKVSNKALPAPIEKTISKAKGQPREPQVCTLPPSRDELTKNQVSLWCLVKGFYPSDIAVEWESNGQPENNYKTTPPVLDSDGSFFLYSKLTVDKSRWQQGNVFSCSVMHEALHNRYTQKSLSLSP light: DIVMTQSPLSLPVTPGEPASISCRSSQSLVHSNRNTYLHWYQQKPGQAPRLLIYKVSNRTSGVPDRFSGSGSGTDFTLKISRVEAEDVGVYYCGQGTQVPYTFGQGTKLEIKRTVAAPSVFIFPPSDEQLKSGTASVVCLLNNFYPREAKVQWKVDNALQSGNSQESVTEQDSKDSTYSLSSTLTLSKADYEKHKVYACEVTHQGLSSPVTKSFNRGEC | 2.42 ratio
CE115HA000/GLS3000 F55V one-arm antibody (antibody, human IgG1, kappa, L234A L235A, N297A, name in Kabat numbering, one-arm IgG1) heavy: QVQLVESGGGVVQPGRSLRLSCAASGFTFSNAWMHWVRQAPGKGLEWVAQIKAKSNNYATYYAESVKGRFTISRDDSKNSLYLQMNSLKTEDTAVYYCRYVHYGAYYGVDAWGQGTTVTVSSASTKGPSVFPLAPSSKSTSGGTAALGCLVKDYFPEPVTVSWNSGALTSGVHTFPAVLQSSGLYSLSSVVTVPSSSLGTQTYICNVNHKPSNTKVDKKVEPKSCDKTHTCPPCPAPEAAGGPSVFLFPPKPKDTLMISRTPEVTCVVVDVSHEDPEVKFNWYVDGVEVHNAKTKPREEQYASTYRVVSVLTVLHQDWLNGKEYKCKVSNKALPAPIEKTISKAKGQPREPQVYTLPPSRCELTKNQVSLSCAVKGFYPSDIAVEWESNGQPENNYKTTPPVLDSDGSFFLVSKLTVDKSRWQQGNVFSCSVMHEALHNHYTQKSLSLSPDYKDDDDK EPKSSDKTHTCPPCPAPELLGGPSVFLFPPKPKDTLMISRTPEVTCVVVDVSHEDPEVKFNWYVDGVEVHNAKTKPREEQYNSTYRVVSVLTVLHQDWLNGKEYKCKVSNKALPAPIEKTISKAKGQPREPQVCTLPPSRDELTKNQVSLWCLVKGFYPSDIAVEWESNGQPENNYKTTPPVLDSDGSFFLYSKLTVDKSRWQQGNVFSCSVMHEALHNRYTQKSLSLSP light: DIVMTQSPLSLPVTPGEPASISCRSSQSLVHSNRNTYLHWYQQKPGQAPRLLIYKVSNRVSGVPDRFSGSGSGTDFTLKISRVEAEDVGVYYCGQGTQVPYTFGQGTKLEIKRTVAAPSVFIFPPSDEQLKSGTASVVCLLNNFYPREAKVQWKVDNALQSGNSQESVTEQDSKDSTYSLSSTLTLSKADYEKHKVYACEVTHQGLSSPVTKSFNRGEC | 1.12 ratio
CE115HA000/GLS3000 F55W one-arm antibody (antibody, human IgG1, kappa, L234A L235A, N297A, name in Kabat numbering, one-arm IgG1) heavy: QVQLVESGGGVVQPGRSLRLSCAASGFTFSNAWMHWVRQAPGKGLEWVAQIKAKSNNYATYYAESVKGRFTISRDDSKNSLYLQMNSLKTEDTAVYYCRYVHYGAYYGVDAWGQGTTVTVSSASTKGPSVFPLAPSSKSTSGGTAALGCLVKDYFPEPVTVSWNSGALTSGVHTFPAVLQSSGLYSLSSVVTVPSSSLGTQTYICNVNHKPSNTKVDKKVEPKSCDKTHTCPPCPAPEAAGGPSVFLFPPKPKDTLMISRTPEVTCVVVDVSHEDPEVKFNWYVDGVEVHNAKTKPREEQYASTYRVVSVLTVLHQDWLNGKEYKCKVSNKALPAPIEKTISKAKGQPREPQVYTLPPSRCELTKNQVSLSCAVKGFYPSDIAVEWESNGQPENNYKTTPPVLDSDGSFFLVSKLTVDKSRWQQGNVFSCSVMHEALHNHYTQKSLSLSPDYKDDDDK EPKSSDKTHTCPPCPAPELLGGPSVFLFPPKPKDTLMISRTPEVTCVVVDVSHEDPEVKFNWYVDGVEVHNAKTKPREEQYNSTYRVVSVLTVLHQDWLNGKEYKCKVSNKALPAPIEKTISKAKGQPREPQVCTLPPSRDELTKNQVSLWCLVKGFYPSDIAVEWESNGQPENNYKTTPPVLDSDGSFFLYSKLTVDKSRWQQGNVFSCSVMHEALHNRYTQKSLSLSP light: DIVMTQSPLSLPVTPGEPASISCRSSQSLVHSNRNTYLHWYQQKPGQAPRLLIYKVSNRWSGVPDRFSGSGSGTDFTLKISRVEAEDVGVYYCGQGTQVPYTFGQGTKLEIKRTVAAPSVFIFPPSDEQLKSGTASVVCLLNNFYPREAKVQWKVDNALQSGNSQESVTEQDSKDSTYSLSSTLTLSKADYEKHKVYACEVTHQGLSSPVTKSFNRGEC | 1.72 ratio
CE115HA000/GLS3000 F55Y one-arm antibody (antibody, human IgG1, kappa, L234A L235A, N297A, name in Kabat numbering, one-arm IgG1) heavy: QVQLVESGGGVVQPGRSLRLSCAASGFTFSNAWMHWVRQAPGKGLEWVAQIKAKSNNYATYYAESVKGRFTISRDDSKNSLYLQMNSLKTEDTAVYYCRYVHYGAYYGVDAWGQGTTVTVSSASTKGPSVFPLAPSSKSTSGGTAALGCLVKDYFPEPVTVSWNSGALTSGVHTFPAVLQSSGLYSLSSVVTVPSSSLGTQTYICNVNHKPSNTKVDKKVEPKSCDKTHTCPPCPAPEAAGGPSVFLFPPKPKDTLMISRTPEVTCVVVDVSHEDPEVKFNWYVDGVEVHNAKTKPREEQYASTYRVVSVLTVLHQDWLNGKEYKCKVSNKALPAPIEKTISKAKGQPREPQVYTLPPSRCELTKNQVSLSCAVKGFYPSDIAVEWESNGQPENNYKTTPPVLDSDGSFFLVSKLTVDKSRWQQGNVFSCSVMHEALHNHYTQKSLSLSPDYKDDDDK EPKSSDKTHTCPPCPAPELLGGPSVFLFPPKPKDTLMISRTPEVTCVVVDVSHEDPEVKFNWYVDGVEVHNAKTKPREEQYNSTYRVVSVLTVLHQDWLNGKEYKCKVSNKALPAPIEKTISKAKGQPREPQVCTLPPSRDELTKNQVSLWCLVKGFYPSDIAVEWESNGQPENNYKTTPPVLDSDGSFFLYSKLTVDKSRWQQGNVFSCSVMHEALHNRYTQKSLSLSP light: DIVMTQSPLSLPVTPGEPASISCRSSQSLVHSNRNTYLHWYQQKPGQAPRLLIYKVSNRYSGVPDRFSGSGSGTDFTLKISRVEAEDVGVYYCGQGTQVPYTFGQGTKLEIKRTVAAPSVFIFPPSDEQLKSGTASVVCLLNNFYPREAKVQWKVDNALQSGNSQESVTEQDSKDSTYSLSSTLTLSKADYEKHKVYACEVTHQGLSSPVTKSFNRGEC | 1.13 ratio
CE115HA000/GLS3000 G89A one-arm antibody (antibody, human IgG1, kappa, L234A L235A, N297A, name in Kabat numbering, one-arm IgG1) heavy: QVQLVESGGGVVQPGRSLRLSCAASGFTFSNAWMHWVRQAPGKGLEWVAQIKAKSNNYATYYAESVKGRFTISRDDSKNSLYLQMNSLKTEDTAVYYCRYVHYGAYYGVDAWGQGTTVTVSSASTKGPSVFPLAPSSKSTSGGTAALGCLVKDYFPEPVTVSWNSGALTSGVHTFPAVLQSSGLYSLSSVVTVPSSSLGTQTYICNVNHKPSNTKVDKKVEPKSCDKTHTCPPCPAPEAAGGPSVFLFPPKPKDTLMISRTPEVTCVVVDVSHEDPEVKFNWYVDGVEVHNAKTKPREEQYASTYRVVSVLTVLHQDWLNGKEYKCKVSNKALPAPIEKTISKAKGQPREPQVYTLPPSRCELTKNQVSLSCAVKGFYPSDIAVEWESNGQPENNYKTTPPVLDSDGSFFLVSKLTVDKSRWQQGNVFSCSVMHEALHNHYTQKSLSLSPDYKDDDDK EPKSSDKTHTCPPCPAPELLGGPSVFLFPPKPKDTLMISRTPEVTCVVVDVSHEDPEVKFNWYVDGVEVHNAKTKPREEQYNSTYRVVSVLTVLHQDWLNGKEYKCKVSNKALPAPIEKTISKAKGQPREPQVCTLPPSRDELTKNQVSLWCLVKGFYPSDIAVEWESNGQPENNYKTTPPVLDSDGSFFLYSKLTVDKSRWQQGNVFSCSVMHEALHNRYTQKSLSLSP light: DIVMTQSPLSLPVTPGEPASISCRSSQSLVHSNRNTYLHWYQQKPGQAPRLLIYKVSNRFSGVPDRFSGSGSGTDFTLKISRVEAEDVGVYYCAQGTQVPYTFGQGTKLEIKRTVAAPSVFIFPPSDEQLKSGTASVVCLLNNFYPREAKVQWKVDNALQSGNSQESVTEQDSKDSTYSLSSTLTLSKADYEKHKVYACEVTHQGLSSPVTKSFNRGEC | 1.1 ratio
